Measurements published in article PMC12408340 (Nature, 2025).

Tests used:
[1] = target: FCoV-23 S domain B (receptor-binding domain, RBD), residues 529-677 (FCoV-23 (feline coronavirus)); assay: BLI; […]; global 1:1 fit; […]
[2] = target: T1, CCoV-HuPn-2018 S domain B (receptor-binding domain, RBD), residues 523-671 (CCoV-HuPn-2018 (canine coronavirus)); assay: BLI
T1 chain: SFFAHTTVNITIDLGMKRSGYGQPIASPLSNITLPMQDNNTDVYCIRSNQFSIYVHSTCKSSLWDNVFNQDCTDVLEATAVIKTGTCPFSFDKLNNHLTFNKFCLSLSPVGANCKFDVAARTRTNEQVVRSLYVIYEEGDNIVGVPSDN

[3] = target: the molecule itself; assay: cryo-EM structure

Row | Molecule | Kd [1] | Kd [2] | also measured
1 | Canis lupus familiaris APN ectodomain fused to a human Fc fragment (CfAPN-Fc) (from UniProt P79143 71-975) (Fc fusion) | 1.3 nM | – | –
2 | Felis catus APN ectodomain fused to a human Fc fragment (FcAPN-Fc) (from UniProt P79171 64-967) (Fc fusion) | 11 nM | – | –
3 | Felis catus APN ectodomain fused to a human Fc fragment (FcAPN-Fc) (Fc fusion) DQSKPWNVYRLPKTLIPDSYNVTLRPYLTPNNKGLYVFTGTNIVRFTCKESTNIVIIHSKRLNYTSHQGHMVALSGVGGFHPQPVIVRTELVELTEYLVVHLQEPLVAGRQYEMNSEFQGELADDLAGFYRSEYMENGVKKVLATTHMQATEARKSFPCFDEPAMKATFNITIIHPNNLVALSNMLPRGPSVPFGEDPTWKVTEFETTPIMSTYLLAYIVSEFSYVETRAPSGVLIRIWARPSAINQGHGDYALKVTGPILDFFSQHYDTPYPLNKSDQIALPDFNAGAMENWGLVTYRESALLYDRQSSSSGNQERVVTVIAHELAHQWFGNLVTLEWWNDLWLNEGFASYVEYLGADFAEPTWNLKDLMVLNDVYRVMAVDALASSHPLSTPASEINTPAQISEVFDSISYSKGASVLRMLSNFLTEDLFKMGIASYLHTYKYGNTIYLNLWEHLQQVVDKQPTIKLPDTVSAIMDRWILQMGFPVITVDTQTGTISQQHFLLDPQSVVTRPSQFNYLWIVPISSVRSGSPQAHYWLPGVEKAQNDLFKTTANDWVLLNLNVTGYYLVNYDNENWKKIQTQLQTDLSVIPVINRAQVIHDAFNLASAQKVPVTLALNNTLFLIQETEYMPWQAALSSLSYFKLMFDRSEVYGPMKRYLKKQVTPLFNHFERVTKNWTDHPQTLMDQYSEINAVSTACSYGVPECEKLAATLFAQWKKNPQNNPIHPNLRSTVYCNAIAQGGEEEWNFVWEQFLKAELVNEADKLRGALACSNQVWILNRFLSYTLDPNLIRKQDVTSTLSSISSNVVGQTLVWDFVQSNWKKLFQDYGTGSFSFSNLIQAVTRRFSTEFELQQLEQFKKNNMDTGFGSATRALEQALEKTKANLKWVKENKDVVLRWFTENS | – | 28 nM | –
4 | Felis catus APN ectodomain dimer without the Fc fusion (FcAPN) (domain or fragment) DQSKPWNVYRLPKTLIPDSYNVTLRPYLTPNNKGLYVFTGTNIVRFTCKESTNIVIIHSKRLNYTSHQGHMVALSGVGGFHPQPVIVRTELVELTEYLVVHLQEPLVAGRQYEMNSEFQGELADDLAGFYRSEYMENGVKKVLATTHMQATEARKSFPCFDEPAMKATFNITIIHPNNLVALSNMLPRGPSVPFGEDPTWKVTEFETTPIMSTYLLAYIVSEFSYVETRAPSGVLIRIWARPSAINQGHGDYALKVTGPILDFFSQHYDTPYPLNKSDQIALPDFNAGAMENWGLVTYRESALLYDRQSSSSGNQERVVTVIAHELAHQWFGNLVTLEWWNDLWLNEGFASYVEYLGADFAEPTWNLKDLMVLNDVYRVMAVDALASSHPLSTPASEINTPAQISEVFDSISYSKGASVLRMLSNFLTEDLFKMGIASYLHTYKYGNTIYLNLWEHLQQVVDKQPTIKLPDTVSAIMDRWILQMGFPVITVDTQTGTISQQHFLLDPQSVVTRPSQFNYLWIVPISSVRSGSPQAHYWLPGVEKAQNDLFKTTANDWVLLNLNVTGYYLVNYDNENWKKIQTQLQTDLSVIPVINRAQVIHDAFNLASAQKVPVTLALNNTLFLIQETEYMPWQAALSSLSYFKLMFDRSEVYGPMKRYLKKQVTPLFNHFERVTKNWTDHPQTLMDQYSEINAVSTACSYGVPECEKLAATLFAQWKKNPQNNPIHPNLRSTVYCNAIAQGGEEEWNFVWEQFLKAELVNEADKLRGALACSNQVWILNRFLSYTLDPNLIRKQDVTSTLSSISSNVVGQTLVWDFVQSNWKKLFQDYGTGSFSFSNLIQAVTRRFSTEFELQQLEQFKKNNMDTGFGSATRALEQALEKTKANLKWVKENKDVVLRWFTENS | – | – | stoichiometry N [3]: 2
5 | Canis lupus familiaris APN ectodomain fused to a human Fc fragment (CfAPN-Fc) (Fc fusion) LAQSKPWNHYRLPKTLIPSSYNVTLRPYLTPNSNGLYTFKGSSTVRFTCKESTSMIIIHSKKLNYTNIQGQRVALRGVGGSQAPAIDRTELVEVTEYLVVHLREPLQVNSQYEMDSKFEGELADDLAGFYRSEYTENGVKKVLATTQMQAADARKSFPCFDEPAMKATFNITLIHPSNLVALSNMLPRGPSVPFTEEPNWNVTEFETTPIMSTYLLAYIVSEFKNVQENTPSNVLIRIWARPSAMDQGHGNYALRVTGPILDFFSRHYDTPYPLNKSDQIALPDFNAGAMENWGLVTYRESALLYDPQSSSIGNKERVVTVIAHELAHQWFGNLVTLEWWNDLWLNEGFASYVEYLGADYAEPTWNLKDLIVLNEVYRVMAVDALASSHPLSSPASEVNTPAQISEVFDSISYSKGASVLRMLSSFLTEDLFKKGVASYLHTFAYQNTIYLDLWNHLQWALGNQTAINLPYTVNAIMDRWILQMGFPVVTVDTTTGTLSQKHFLLDPQSNVTRPSKFNYLWIIPISSVKSGTQQAHYWMPDNAKVQNDLFKTTGDEWVLLNLNVTGYYLVNYDQNNWKKIHTQLQTDLSVIPVINRAQVIHDTFDLASAQIVPVTLALNSTLFLNQETEYMPWEAALSSLSYFKLMFDRSEVYGPMKNYLRKQVTPLFNHFEKITQNWTDHPQTLTEQYNEINAVSTACTYGVPKCKDLVSTLFAEWRKNPQNNPIYPNLRSTVYCNAIAQGGEEEWNFVWEQFRNTSLVNEADKLRSALACSTQVWILNRYLSYTLNPEFIRKQDVISTLSSIASNVIGQSLAWDFIQSNWKKLFEDYGTGSFSFSNLIQAVTRRFSTEFELQQLEQFKANNMDTGFGSGTRALEQALEKTKANIKWVKENKEAVLQWFRENSQ | – | 2.6 nM | –
